Target: soluble recombinant human gp39 (CD8-gp39 fusion protein) (murine; human)

inhibition of shgp39/IF5 or shgp39/PMA driven tonsillar B cell proliferation: 50 % inhibition
Substance: CD40-Ig (modified by L234F, L235E and G237A in the immunoglobulin domain) (from UniProt P25942) (Fc fusion)
